Tests used:
[1] = target: T1, human plasma-derived FX (Haematologic Technologies Inc, USA) (human, UniProt P00742 41-179; P00742 183-488); assay: cell-based or functional assay
[2] = target: T1, human plasma-derived FX (Haematologic …); assay: SPR, FX captured on immobilised anti-GLA-FX antibody, steady state analysis, 25 C
Experimental: Briefly, an anti-GLA-FX, prepared recombinantly as described above, was immobilised on a CM4 sensor chip or a Xantec HLC200M using standard amine coupling chemistry at pH 5. 10 nM FX (Haematologic Technologies, USA) was injected at a flow rate of 10 μL/min for 30 seconds. Subsequently 1000, 100, 10, 1, 0.1 and 0 nM of VHH polypeptide compound, according to Table 9, below were injected at a flow rate of 50 μL/min for 200 seconds to allow for binding to FX followed by a flow of 10 minutes with a running buffer (10 mM HEPES, 150 mM NaCl, 5 mM CaCl₂), 0.05% (v/v) Surfactant P20, 1 mg/mL bovine serum albumin, pH 7.4) injection allowing for dissociation from FX. The running buffer was also used for dilution of anti-FX VHH polypeptide compounds. Regeneration of the chip was achieved using a regeneration buffer consisting of 50 mM EDTA in running buffer, 30 seconds contact time, and a 30 μL/min flow rate. The binding data were collected at 25° C. and were analysed according to a 1:1 model using BiaEvaluation 4.1 supplied by the manufacturer (Biacore AB, Uppsala or Bruker Analyser).
(§1) Therefore, the reported KD values are determined based on steady state analysis.

[3] = target: T2, Benefix (Pfizer Inc, USA), FIX (human, UniProt P00740 47-461); assay: SPR, FIX (Benefix) captured on immobilised anti-GLA-FIX antibody, steady state analysis, 25 C
T2 construct: Bought product; also called FIX (Benefix®)
T2 sequence (P00740 47-461 T194A limits assumed): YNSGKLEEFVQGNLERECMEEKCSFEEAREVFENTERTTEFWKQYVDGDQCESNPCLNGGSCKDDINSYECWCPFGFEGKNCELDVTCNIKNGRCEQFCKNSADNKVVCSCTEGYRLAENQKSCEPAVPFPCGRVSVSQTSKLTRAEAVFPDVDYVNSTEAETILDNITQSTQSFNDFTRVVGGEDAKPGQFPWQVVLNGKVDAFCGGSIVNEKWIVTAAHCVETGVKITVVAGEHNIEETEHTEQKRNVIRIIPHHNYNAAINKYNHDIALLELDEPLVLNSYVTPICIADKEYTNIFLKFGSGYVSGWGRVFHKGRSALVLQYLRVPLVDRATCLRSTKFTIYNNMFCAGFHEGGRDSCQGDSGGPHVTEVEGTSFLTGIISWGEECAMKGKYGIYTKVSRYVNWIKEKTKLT
Experimental: Briefly, anti-GLA-FIX, prepared recombinantly as described above, was immobilised on a CM4 sensor chip or a Xantec HLC200M using standard amine coupling chemistry at pH 5. FIX (10 nM) was injected at a flow rate of 10 μL/min for 1 minute. Subsequently 1000, 100, 10, 1, 0.1 and 0 nM of VHH polypeptide compound were injected at a flow rate of 30 μL/min for 4 minutes to allow for binding to the FIX (Benefix®) followed by a flow of 5 minutes running buffer (10 mM HEPES, 150 mM NaCl, 5 mM CaCl₂), 0.05% (v/v) Surfactant P20, 1 mg/mL bovine serum albumin, pH 7.4) injection allowing for dissociation from FIX. The running buffer was also used for dilution of anti-FIX VHH polypeptide compounds. Regeneration of the chip was achieved using a regeneration buffer consisting of 50 mM EDTA in running buffer, 30 seconds contact time, and a 30 μL/min flow rate. The binding data were collected at 25° C. and were analysed according to a 1:1 model using BiaEvaluation 4.1 supplied by the manufacturer (Biacore AB, Uppsala).
as §1

T1 sequence (P00742 41-179, chain 1 of 2): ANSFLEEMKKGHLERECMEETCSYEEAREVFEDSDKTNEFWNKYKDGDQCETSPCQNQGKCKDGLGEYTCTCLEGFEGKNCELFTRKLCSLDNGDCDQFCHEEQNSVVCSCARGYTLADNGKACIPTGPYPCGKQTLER
T1 sequence (P00742 183-488, chain 2 of 2): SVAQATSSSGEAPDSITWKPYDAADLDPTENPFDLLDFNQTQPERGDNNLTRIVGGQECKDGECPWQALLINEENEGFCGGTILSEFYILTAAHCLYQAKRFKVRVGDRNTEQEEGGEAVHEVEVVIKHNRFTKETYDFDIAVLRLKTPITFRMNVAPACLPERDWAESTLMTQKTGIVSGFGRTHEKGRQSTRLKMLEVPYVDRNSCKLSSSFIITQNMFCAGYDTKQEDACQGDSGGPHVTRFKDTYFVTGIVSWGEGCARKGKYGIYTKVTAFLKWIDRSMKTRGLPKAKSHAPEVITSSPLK

KM (nM) of FX activation by 0.1 nM FIXa on phospholipid vesicles with 5 nM compound [1]	kcat/KM (1/(min * nM)) of FX activation by 0.1 nM FIXa with 5 nM compound [1]	Kd [2]	Kd [3]	Binder
6.2 nM	3e+06 M⁻¹ s⁻¹	300 nM	2 nM	Cmpd #13 (anti-FX/anti-FIX(a) VHH polypeptide derivative) (bispecific antibody, C16 diacid protractor (P2) via linker LP1 on Cys4 and Cys6 in C-term extension (SEQ ID NO: 9), Single chain of two VHH: anti-FX (N-terminal) and anti-FIX(a) (C-terminal); also called VHH1.13-L1-2-VHH2.13-E) DVQLVESGGGVVQPGGSLQLSCAASGGTKRRLAMGWFRQAPGQEREWVAAISRRGGSTNYADSVKGRFTISRDNSKNTVYLDMDDLRPEDTALYYCAADDSVGDGYLDYWGQGTLVTVSSGQAPGQEVQLVESGGGVVQPGGSLQLSCAASGRTFNIYTMSWFRQDPGQEREFVAGLRWTDSSTEYADSVKGRFTISRDNSKNTVYLQMDSLRPEDTALYYCAADRSFLFAQALGATKNYEYWGQGTLVTVSSGQACPC
–	–	190 nM	5.5 nM	Cmpd #10 (anti-FX/anti-FIX(a) VHH polypeptide derivative) (bispecific antibody, C16 diacid protractor (P2) via linker LP1 on Cys4 and Cys6 in C-term extension (SEQ ID NO: 9), Single chain of two VHH: anti-FX (N-terminal) and anti-FIX(a) (C-terminal)) DVQLVESGGGVVQPGGSLQLSCAASGGTKRRLAMGWFRQAPGQEREWVAAISRRGGSTNYADSVKGRFTISRDNSKNTVYLQMDSLRPEDTALYYCAADDSVGDGYLDYWGQGTLVTVSSGQAPGQEVQLVESGGGVVQPGGSLRLSCAASGRTFNIYTMSWFRQAPGQEREFVAGLRWTDSSTEYADSVKGRFTISRDNSKNTVYLQMNSLRPEDTALYYCAADRSFLFAQALGATKNYEYWGQGTLVTVSSGQACPC
–	–	70 nM	1.1 nM	Cmpd #9 (anti-FX/anti-FIX(a) VHH polypeptide derivative) (bispecific antibody, C16 diacid protractor (P2) via linker LP1 on Cys4 and Cys6 in C-term extension (SEQ ID NO: 9), Single chain of two VHH: anti-FX (N-terminal) and anti-FIX(a) (C-terminal)) DVQLVESGGGVVQPGGSLQLSCAASGGTKSRYAMGWFRQAPGQEREFVAAISRRGGSTNYADSVKGRFTISRDNSKNTVYLDMDDLRPEDTALYYCAADDSVGDGYLDYWGQGTLVTVSSGQAPGQEVQLVESGGGVVQPGGSLRLSCAASGRTFNIYTMSWFRQDPGQEREFVAGLRWTDSSTEYADSVKGRFTISRDNSKNTVYLQMNSLRPEDTALYYCAADRSFLFAQALGATKNYEYWGQGTLVTVSSGQACPC
–	–	82 nM	2.3 nM	Cmpd #7 (anti-FX/anti-FIX(a) VHH polypeptide derivative) (bispecific antibody, C16 diacid protractor (P2) via linker LP1 on Cys4 and Cys6 in C-term extension (SEQ ID NO: 9), Single chain of two VHH: anti-FX (N-terminal) and anti-FIX(a) (C-terminal)) DVQLVESGGGVVQPGGSLQLSCAASGGTKSRYAMGWFRQAPGQEREFVAAISRRGGSTNYADSVKGRFTISRDNSKNTVYLQMDSLRPEDTALYYCAADDSVGDGYLDYWGQGTLVTVSSGQAPGQEVQLVESGGGVVQPGGSLRLSCAASGRTFNIYTMSWFRQAPGQEREFVAGLRWTDSSTEYADSVKGRFTISRDNSKNTVYLQMNSLRPEDTALYYCAADRSFLFAQALGATKNYEYWGQGTLVTVSSGQACPC
–	–	42 nM	6.4 nM	Cmpd #11 (anti-FX/anti-FIX(a) VHH polypeptide derivative) (bispecific antibody, C16 diacid protractor (P2) via linker LP1 on Cys4 and Cys6 in C-term extension (SEQ ID NO: 9), Single chain of two VHH: anti-FX (N-terminal) and anti-FIX(a) (C-terminal)) DVQLVESGGGVVQPGGSLQLSCAASGGTKRRLAMGWFRQAPGQEREFVAAISRRGGSTNYADSVKGRFTISRDNSKNTVYLDMDDLRPEDTALYYCAADDSVGDGYLDYWGQGTLVTVSSGQAPGQEVQLVESGGGVVQPGGSLRLSCAASGRTFNIYTMSWFRQDPGQEREFVAGLRWTDSSTEYADSVKGRFTISRDNSKNTVYLQMNSLRPEDTALYYCAADRSFLFAQALGATKNYEYWGQGTLVTVSSGQACPC
4.8 nM	4.5e+06 M⁻¹ s⁻¹	96 nM	2.5 nM	Cmpd #8 (anti-FX/anti-FIX(a) VHH polypeptide derivative) (bispecific antibody, C16 diacid protractor (P2) via linker LP1 on Cys4 and Cys6 in C-term extension (SEQ ID NO: 9), Single chain of two VHH: anti-FX (N-terminal) and anti-FIX(a) (C-terminal)) DVQLVESGGGVVQPGGSLQLSCAASGGTKSRYAMGWFRQAPGQEREFVAAISRRGGSTNYADSVKGRFTISRDNSKNTVYLQMDSLRPEDTALYYCAADDSVGDGYLDYWGQGTLVTVSSGQAPGQEVQLVESGGGVVQPGGSLQLSCAASGRTFNIYTMSWFRQAPGQEREFVAGLRWTDSSTEYADSVKGRFTISRDNSKNTVYLQMDSLRPEDTALYYCAADRSFLFAQALGATKNYEYWGQGTLVTVSSGQACPC
–	–	26 nM	7.8 nM	Cmpd #12 (anti-FX/anti-FIX(a) VHH polypeptide derivative) (bispecific antibody, C16 diacid protractor (P2) via linker LP1 on Cys4 and Cys6 in C-term extension (SEQ ID NO: 9), Single chain of two VHH: anti-FX (N-terminal) and anti-FIX(a) (C-terminal); also called VHH1.12-L1-2-VHH2.12-E) DVQLVESGGGVVQPGGSLQLSCAASGGTKRRLAMGWFRQAPGQEREFVAAISRRGGSTNYADSVKGRFTISRDNSKNTVYLDMDDLRPEDTALYYCAADDSVGDGYLDYWGQGTLVTVSSGQAPGQEVQLVESGGGVVQPGGSLQLSCAASGRTFNIYTMSWFRQDPGQEREFVAGLRWTDSSTEYADSVKGRFTISRDNSKNTVYLQMDSLRPEDTALYYCAADRSFLFAQALGATKNYEYWGQGTLVTVSSGQACPC
